Source: paper PMC8450086, “Cooperative DNA binding mediated by KicGAS/ORF52 oligomerization allows inhibition of DNA-induced phase separation and activation of cGAS”

Columns and labels:
KicGAS [1] = molecular target: T1, KicGAS (Kaposi sarcoma-associated herpesvirus …, UniProt Q2HR80 1-131); experiment: EMSA; Hill n 2.20; EMSA: 20 mM Tris-HCl pH 7.4, 150 mM NaCl, 10% glycerol, on ice, 20 nM FAM-DNA, gel at 4 C; FP: 400 pg/ul FAM-DNA, buffer and temperature not stated; Hill fits; settings: protein: recombinant; tags: Avi-His6-SUMO removed (tag-free); label: 5' FAM sense strand; blunt
T1 sequence: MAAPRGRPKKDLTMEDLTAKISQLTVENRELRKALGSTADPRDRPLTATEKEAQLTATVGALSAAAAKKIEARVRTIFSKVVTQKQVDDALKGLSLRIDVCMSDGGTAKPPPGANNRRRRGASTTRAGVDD

KicGAS [2] = molecular target: T1, KicGAS; experiment: fluorescence polarization; Hill n 2.1; EMSA: 20 mM Tris-HCl pH 7.4, 150 mM NaCl, 10% glycerol, on ice, 20 nM FAM-DNA, gel at 4 C; FP: 400 pg/ul FAM-DNA, buffer and temperature not stated; Hill fits; settings: protein: recombinant; tags: Avi-His6-SUMO removed (tag-free); label: 5' FAM sense strand; blunt
KicGAS [3] = molecular target: T1, KicGAS; experiment: fluorescence polarization; Hill n 1.85; EMSA: 20 mM Tris-HCl pH 7.4, 150 mM NaCl, 10% glycerol, on ice, 20 nM FAM-DNA, gel at 4 C; FP: 400 pg/ul FAM-DNA, buffer and temperature not stated; Hill fits; settings: protein: recombinant, tags: Avi-His6-SUMO removed (tag-free)
KicGAS [4] = molecular target: T1, KicGAS; experiment: fluorescence polarization; Hill n 1.50; EMSA: 20 mM Tris-HCl pH 7.4, 150 mM NaCl, 10% glycerol, on ice, 20 nM FAM-DNA, gel at 4 C; FP: 400 pg/ul FAM-DNA, buffer and temperature not stated; Hill fits; settings: protein: recombinant; tags: Avi-His6-SUMO removed (tag-free); label: 5' FAM
KicGAS [5] = molecular target: T1, KicGAS; experiment: fluorescence polarization; Hill n 2.05; EMSA: 20 mM Tris-HCl pH 7.4, 150 mM NaCl, 10% glycerol, on ice, 20 nM FAM-DNA, gel at 4 C; FP: 400 pg/ul FAM-DNA, buffer and temperature not stated; Hill fits; settings: protein: recombinant; tags: Avi-His6-SUMO removed (tag-free); label: 5' FAM sense strand; blunt
KicGAS [6] = molecular target: T1, KicGAS; experiment: fluorescence polarization; Hill n 2.15; EMSA: 20 mM Tris-HCl pH 7.4, 150 mM NaCl, 10% glycerol, on ice, 20 nM FAM-DNA, gel at 4 C; FP: 400 pg/ul FAM-DNA, buffer and temperature not stated; Hill fits; settings: protein: recombinant; tags: Avi-His6-SUMO removed (tag-free); label: 5' FAM
KicGAS [7] = molecular target: T1, KicGAS; experiment: fluorescence polarization; Hill n 2.24; EMSA: 20 mM Tris-HCl pH 7.4, 150 mM NaCl, 10% glycerol, on ice, 20 nM FAM-DNA, gel at 4 C; FP: 400 pg/ul FAM-DNA, buffer and temperature not stated; Hill fits; settings: protein: recombinant, tags: Avi-His6-SUMO removed (tag-free)
KicGAS [8] = molecular target: T1, KicGAS; experiment: fluorescence polarization; Hill n 0.90; EMSA: 20 mM Tris-HCl pH 7.4, 150 mM NaCl, 10% glycerol, on ice, 20 nM FAM-DNA, gel at 4 C; FP: 400 pg/ul FAM-DNA, buffer and temperature not stated; Hill fits; settings: protein: recombinant; tags: Avi-His6-SUMO removed (tag-free); label: 5' FAM
KicGAS [9] = molecular target: T1, KicGAS; experiment: EMSA; Hill n 1.95; EMSA: 20 mM Tris-HCl pH 7.4, 150 mM NaCl, 10% glycerol, on ice, 20 nM FAM-DNA, gel at 4 C; FP: 400 pg/ul FAM-DNA, buffer and temperature not stated; Hill fits; settings: protein: recombinant; tags: Avi-His6-SUMO removed (tag-free); label: 5' FAM sense strand; blunt
KicGAS [10] = molecular target: T1, KicGAS; experiment: fluorescence polarization; Hill n 1.84; EMSA: 20 mM Tris-HCl pH 7.4, 150 mM NaCl, 10% glycerol, on ice, 20 nM FAM-DNA, gel at 4 C; FP: 400 pg/ul FAM-DNA, buffer and temperature not stated; Hill fits; settings: protein: recombinant; tags: Avi-His6-SUMO removed (tag-free); label: 5' FAM sense strand; blunt
KicGAS [11] = molecular target: T1, KicGAS; experiment: fluorescence polarization; Hill n 2.21; EMSA: 20 mM Tris-HCl pH 7.4, 150 mM NaCl, 10% glycerol, on ice, 20 nM FAM-DNA, gel at 4 C; FP: 400 pg/ul FAM-DNA, buffer and temperature not stated; Hill fits; settings: protein: recombinant; tags: Avi-His6-SUMO removed (tag-free); label: 5' FAM
KicGAS [12] = molecular target: T1, KicGAS; experiment: fluorescence polarization; Hill n 2.36; EMSA: 20 mM Tris-HCl pH 7.4, 150 mM NaCl, 10% glycerol, on ice, 20 nM FAM-DNA, gel at 4 C; FP: 400 pg/ul FAM-DNA, buffer and temperature not stated; Hill fits; settings: protein: recombinant; tags: Avi-His6-SUMO removed (tag-free); label: 5' FAM sense strand; blunt
KicGAS [13] = molecular target: T1, KicGAS; experiment: fluorescence polarization; Hill n 1.88; EMSA: 20 mM Tris-HCl pH 7.4, 150 mM NaCl, 10% glycerol, on ice, 20 nM FAM-DNA, gel at 4 C; FP: 400 pg/ul FAM-DNA, buffer and temperature not stated; Hill fits; settings: protein: recombinant; tags: Avi-His6-SUMO removed (tag-free); label: 5' FAM sense strand; blunt
KicGAS [14] = molecular target: T1, KicGAS; experiment: fluorescence polarization; EMSA: 20 mM Tris-HCl pH 7.4, 150 mM NaCl, 10% glycerol, on ice, 20 nM FAM-DNA, gel at 4 C; FP: 400 pg/ul FAM-DNA, buffer and temperature not stated; Hill fits; settings: protein: recombinant; tags: Avi-His6-SUMO removed (tag-free); label: 5' FAM sense strand; blunt
KicGAS [15] = molecular target: T1, KicGAS; experiment: fluorescence polarization; Hill n 1.33; EMSA: 20 mM Tris-HCl pH 7.4, 150 mM NaCl, 10% glycerol, on ice, 20 nM FAM-DNA, gel at 4 C; FP: 400 pg/ul FAM-DNA, buffer and temperature not stated; Hill fits; settings: protein: recombinant; tags: Avi-His6-SUMO removed (tag-free); label: 5' FAM
KicGAS [16] = molecular target: T1, KicGAS; experiment: fluorescence polarization; Hill n 2.31; EMSA: 20 mM Tris-HCl pH 7.4, 150 mM NaCl, 10% glycerol, on ice, 20 nM FAM-DNA, gel at 4 C; FP: 400 pg/ul FAM-DNA, buffer and temperature not stated; Hill fits; settings: protein: recombinant; tags: Avi-His6-SUMO removed (tag-free); label: 5' FAM sense strand; blunt
KicGAS [17] = molecular target: T1, KicGAS; experiment: fluorescence polarization; Hill n 2.55; EMSA: 20 mM Tris-HCl pH 7.4, 150 mM NaCl, 10% glycerol, on ice, 20 nM FAM-DNA, gel at 4 C; FP: 400 pg/ul FAM-DNA, buffer and temperature not stated; Hill fits; settings: protein: recombinant; tags: Avi-His6-SUMO removed (tag-free); label: 5' FAM sense strand; blunt
KicGAS [18] = molecular target: T1, KicGAS; experiment: fluorescence polarization; Hill n 1.69; EMSA: 20 mM Tris-HCl pH 7.4, 150 mM NaCl, 10% glycerol, on ice, 20 nM FAM-DNA, gel at 4 C; FP: 400 pg/ul FAM-DNA, buffer and temperature not stated; Hill fits; settings: protein: recombinant; tags: Avi-His6-SUMO removed (tag-free); label: 5' FAM sense strand; blunt
KicGAS [19] = molecular target: T1, KicGAS; experiment: fluorescence polarization; Hill n 2.33; EMSA: 20 mM Tris-HCl pH 7.4, 150 mM NaCl, 10% glycerol, on ice, 20 nM FAM-DNA, gel at 4 C; FP: 400 pg/ul FAM-DNA, buffer and temperature not stated; Hill fits; settings: protein: recombinant; tags: Avi-His6-SUMO removed (tag-free); label: 5' FAM sense strand; blunt
KicGAS [20] = molecular target: T1, KicGAS; experiment: fluorescence polarization; Hill n 1.70; EMSA: 20 mM Tris-HCl pH 7.4, 150 mM NaCl, 10% glycerol, on ice, 20 nM FAM-DNA, gel at 4 C; FP: 400 pg/ul FAM-DNA, buffer and temperature not stated; Hill fits; settings: protein: recombinant; tags: Avi-His6-SUMO removed (tag-free); label: 5' FAM sense strand; blunt

B1: ISD45 (dsDNA)
DNA 1: TACAGATCTACTAGTGATCTATGACTGATCTGTACATGATCTACA
DNA 2: TGTAGATCATGTACAGATCAGTCATAGATCACTAGTAGATCTGTA
KicGAS [1]
  Kd: 120 ± 10 nM
KicGAS [2]
  Kd: 150 ± 20 nM

B2: DNA-RNA hybrid 45 (DNA:RNA)
RNA: UACAGAUCUACUAGUGAUCUAUGACUGAUCUGUACAUGAUCUACA
DNA: B1 DNA 2
KicGAS [3]; label: 5' FAM sense strand (RNA), blunt
  Kd: 300 ± 20 nM

## TACAGATCTACTAGTGATCTATGACTGATCTGTACATGATCTACA (ssDNA) [ssISD45]
KicGAS [3]; label: 5' FAM
  Kd: 260 ± 10 nM

## ATCTACTAGTGATCTATGACTGATCTGTAC (ssDNA) [ssISD30]
KicGAS [4]
  Kd: 720 ± 50 nM

B3: 90% GC (dsDNA)
DNA 1: CCGCCAGCCCGCGGGCTGGC
DNA 2: GCCAGCCCGCGGGCTGGCGG
KicGAS [5]
  Kd: 1160 ± 80 nM

B4: ssHSV60 (ssDNA)
DNA: TAAGACACGATGCGATAAAATCTGTTTGTAAAATTTATTAAGGGTACAAATT
KicGAS [6]
  Kd: 170 ± 10 nM

B5: HSV60 (dsDNA)
DNA 1: B4 DNA
DNA 2: AATTTGTACCCTTAATAAATTTTACAAACAGATTTTATCGCATCGTGTCTTA
KicGAS [7]; label: 5' FAM sense strand, blunt
  Kd: 160 ± 10 nM

## ATCTATGACTGATCTGTACA (ssDNA) [ssISD20]
KicGAS [8]
  Kd: 5080 ± 400 nM

B6: ISD25 (dsDNA)
DNA 1: CTAGTGATCTATGACTGATCTGTAC
DNA 2: GTACAGATCAGTCATAGATCACTAG
KicGAS [9]
  Kd: 380 ± 30 nM
KicGAS [10]
  Kd: 440 ± 30 nM

B7: ssVACV72 (ssDNA)
DNA: ATCCATCAGAAAGAGGTTTAATATTTTTGTGAGACCATCGAAGAGAGAAAGAGATAAAACTTTTTTACGACT
KicGAS [11]
  Kd: 130 ± 10 nM

B8: VACV72 (dsDNA)
DNA 1: B7 DNA
DNA 2: AGTCGTAAAAAAGTTTTATCTCTTTCTCTCTTCGATGGTCTCACAAAAATATTAAACCTCTTTCTGATGGAT
KicGAS [12]
  Kd: 130 ± 10 nM

B9: ISD30 (dsDNA)
DNA 1: ATCTACTAGTGATCTATGACTGATCTGTAC
DNA 2: GTACAGATCAGTCATAGATCACTAGTAGAT
KicGAS [13]
  Kd: 290 ± 20 nM

B10: ISD12 (dsDNA)
DNA 1: ACTGATCTGTAC
DNA 2: GTACAGATCAGT
KicGAS [14]
  binding result: no binding

## CTAGTGATCTATGACTGATCTGTAC (ssDNA) [ssISD25]
KicGAS [15]
  Kd: 1580 ± 220 nM

B11: 30% GC (dsDNA)
DNA 1: ATATCGCTATAGATATCATC
DNA 2: GATGATATCTATAGCGATAT
KicGAS [16]
  Kd: 1070 ± 60 nM

B12: KS90 (dsDNA)
DNA 1: TCGTCTCGCCTGTCAAATCGTCTATGTTTTTCGGCGCGTTGTGCCAATATAACTCTAGAAACTAATACTGTATCTGTCAGCAGTACTACA
DNA 2: TGTAGTACTGCTGACAGATACAGTATTAGTTTCTAGAGTTATATTGGCACAACGCGCCGAAAAACATAGACGATTTGACAGGCGAGACGA
KicGAS [17]
  Kd: 100 ± 10 nM

B13: ssKS90 (ssDNA)
DNA: B12 DNA 1
KicGAS [7]; label: 5' FAM
  Kd: 100 ± 10 nM

B14: dsRNA45 (dsRNA)
RNA 1: B2 RNA
RNA 2: UGUAGAUCAUGUACAGAUCAGUCAUAGAUCACUAGUAGAUCUGUA
KicGAS [18]
  Kd: 560 ± 50 nM

B15: 0% GC (dsDNA)
DNA 1: ATTTAATAATAATTTATTAT
DNA 2: ATAATAAATTATTATTAAAT
KicGAS [19]
  Kd: 800 ± 50 nM

B16: ISD20 (dsDNA)
DNA 1: ATCTATGACTGATCTGTACA
DNA 2: TGTACAGATCAGTCATAGAT
KicGAS [20]
  Kd: 820 ± 80 nM
